The values below come from paper PMC11495376.

Conditions in all cases: EMSA per cited procedure (ref 27); buffer, salt, pH and temperature not given in the material
(In EMSA bound probe runs differently from free probe, usually more slowly.)

For data set [1], the system named is T1, TarR (Bacillus velezensis FZB42), ORF:a9b72c09.
T1 sequence: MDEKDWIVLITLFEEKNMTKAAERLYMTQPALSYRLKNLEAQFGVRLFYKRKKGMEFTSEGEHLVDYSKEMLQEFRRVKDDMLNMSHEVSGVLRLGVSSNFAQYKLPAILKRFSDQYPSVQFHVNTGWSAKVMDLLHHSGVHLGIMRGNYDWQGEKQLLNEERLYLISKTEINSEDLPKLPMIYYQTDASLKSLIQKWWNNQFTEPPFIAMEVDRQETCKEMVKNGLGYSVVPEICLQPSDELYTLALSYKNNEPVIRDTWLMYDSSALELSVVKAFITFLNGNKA
The data set is described as follows: EMSA.

The subject of data set [2] is T2, TarRN1-91 (Bacillus velezensis FZB42), ORF:46dabd2b.
T2 sequence: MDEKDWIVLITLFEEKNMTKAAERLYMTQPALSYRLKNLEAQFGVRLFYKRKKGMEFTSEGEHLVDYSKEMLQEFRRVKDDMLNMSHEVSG
The data set is described as follows: EMSA?

For data set [3], the system named is T1, TarR (Bacillus velezensis FZB42), ORF:a9b72c09. The data set is described as follows: DNase I footprinting.

With “AGCGAAAATATTTTTTAAAAAAGTATTGACCTAGCAAACTGAAAATGTTATGATTAAGAGGTCGCTTCGAGAGAAGCAACAAAGTTCTTTGAAAACTAAACAAGACAAAACGTACCTGTTAATTCAAAGTTTTAAATAAATCGCACAGCGATGTGCGTAGTCAGTCAAACTAC (double strand) [P16S]”, the binding entry in data set [1] is “no binding”.

In the case of “GCTGTCTCATCCTTACATCATTTTGTGTGGATAAAAAGGTACCGGTCCCTTTGGAAAATATCGTATGATAAATAAGGATTATAAGTAAAACATATAATTTTTATAAAGTTGAATAAAAAAAATTTATAATAAGAGAAAATTTTATAGCAGAAAAATATTTTGGGGGATTTCAT (double strand) [Ptar]”, the binding entry in data set [1], in data set [2] and in data set [3] was “binds” each time.
